In patent US20200246419A1:

Molecular target: CD36 (human) (UniProt P16671)
Assay: cell-based or functional assay

Chain of CD36 (human) (P16671 2-472): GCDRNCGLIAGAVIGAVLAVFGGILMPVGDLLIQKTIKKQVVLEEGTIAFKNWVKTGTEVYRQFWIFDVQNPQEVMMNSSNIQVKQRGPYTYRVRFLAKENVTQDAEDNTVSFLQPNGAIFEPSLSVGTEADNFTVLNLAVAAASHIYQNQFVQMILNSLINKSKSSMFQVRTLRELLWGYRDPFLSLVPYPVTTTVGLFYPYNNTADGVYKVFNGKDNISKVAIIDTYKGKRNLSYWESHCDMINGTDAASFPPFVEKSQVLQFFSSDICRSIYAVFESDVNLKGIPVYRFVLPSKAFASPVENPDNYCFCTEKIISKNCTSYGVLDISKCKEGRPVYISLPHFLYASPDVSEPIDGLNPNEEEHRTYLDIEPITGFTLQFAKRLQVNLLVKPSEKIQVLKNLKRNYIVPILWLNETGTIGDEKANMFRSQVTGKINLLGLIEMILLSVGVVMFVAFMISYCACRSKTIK

recombinant human Tsp-1 (from UniProt P07996 19-1170) (ligand)
total cell number (Wst-1 assay) of patient-derived ovarian cancer cell lines treated with rhTsp-1 for up to 72 hours: < 50%
